{"source": "paper PMC4420250", "target": "autoinducing peptide 1 (AIP1), active (cyclized), N-terminally biotinylated (Staphylococcus aureus)"}
{"substance": "human LDL (apoB100) (natural protein)", "values": [{"measurement": "IC50 of inhibition of agr::P3-yfp promoter activation in S. aureus AH1677 (agr-I) cultured with 50 nM exogenous AIP1 and increasing concentrations of lipoprotein", "value": 2.3, "unit": "nM"}]}
{"substance": "apoB48-containing lipoprotein particles (apoB48-LP) from serum of ApoE-/- mice (natural protein)", "values": [{"measurement": "IC50 of inhibition of agr::P3-yfp promoter activation in S. aureus AH1677 (agr-I) cultured with 50 nM exogenous AIP1 and increasing concentrations of lipoprotein", "value": 3.5, "unit": "nM"}]}
